Measured values taken from PMC7409020, “Tumor-Targeting Peptides: The Functional Screen of Glioblastoma Homing Peptides to the Target Protein FABP3 (MDGI)” (Cancers, 2020).
Values belong to the binder of their own block, whether it stands above or below them. Square brackets hold non-standard residues; d marks the D form. Ends that are not written are not given here.

Biological target: recombinant N-terminal His6-tagged human FABP3 (human)
Experiment: MST; Monolith NT.115; 20 nM NT-650-NHS-labelled FABP3, unlabelled peptides 500 µM to 0.0153 µM in two-fold dilutions; 25 °C; PBS with 0.05% Tween 20, pH 7.4; 40% MST power, 60% LED power; 1:1 fit; triplicates

Chain of recombinant N-terminal His6-tagged human FABP3 (human) (P05413 2-133): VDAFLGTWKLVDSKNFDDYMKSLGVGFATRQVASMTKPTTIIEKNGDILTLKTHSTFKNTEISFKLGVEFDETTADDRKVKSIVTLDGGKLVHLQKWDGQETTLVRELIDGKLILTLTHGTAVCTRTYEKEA

fold lower binding affinity compared to A-CooP: 10 fold
B1: RI-A-CooP (peptide)
peptide: [dA][dV]G[dL]G[dS][dL]G[dC][dA]-NH2
modifications: N-terminus assumed
SMILES: CC(C)C[C@@H](NC(=O)CNC(=O)[C@H](NC(=O)[C@@H](C)N)C(C)C)C(=O)NCC(=O)N[C@H](CO)C(=O)N[C@H](CC(C)C)C(=O)NCC(=O)N[C@H](CS)C(=O)N[C@H](C)C(N)=O

Kd: 70 nM
Binder: ACGLSGLGVAK-NH2 [A-CooP-K]

Kd: 630 nM
Binder: KACGLSGLGVA-NH2 [KA-CooP]

Kd: 133000 nM
Binder: ACGLSGLAVA-NH2 [A-[Ala^7]CooP]

Kd: 2180 nM
Binder: ACGLSGLGVA-NH2 [A-CooP]
